Where two headings read alike, the source gives them in different places.
Key:
[1] = biological target: T1, F-actin (cryo-EM samples) ( (chicken and rabbit muscle …, UniProt P68139 1-377)); experiment: cryo-EM structure
[2] = biological target: T1, F-actin (cryo-EM samples); experiment: cryo-EM structure; remark: listed apart in the source

Row | Binder | stoichiometry N [1] | stoichiometry N [2]
1 | SipA^β (SipA_(426–685)) (domain or fragment) GETTSFDEVDGVTSKSIIGKPVQATVHGVDDNKQQSQTAEIVNVKPLASQLAGVENVKTDTLQSDTTVITGNKAGTTDNDNSQTDKTGPFSGLKFKQNSFLSTVPSVTNMHSMHFDARETFLGVIRKALEPDTSTPFPVRRAFDGLRAEILPNDTIKSAALKAQCSDIDKHPELKAKMETLKEVITHHPQKEKLAEIALQFAREAGLTRLKGETDYVLSNVLDGLIGDGSWRAGPAYESYLNKPGVDRVITTVDGLHMQR | 0.5 SipA per actin subunit (molar ratio) | –
2 | SipA^α (SipA_(497–669)) (domain or fragment) NKAGTTDNDNSQTDKTGPFSGLKFKQNSFLSTVPSVTNMHSMHFDARETFLGVIRKALEPDTSTPFPVRRAFDGLRAEILPNDTIKSAALKAQCSDIDKHPELKAKMETLKEVITHHPQKEKLAEIALQFAREAGLTRLKGETDYVLSNVLDGLIGDGSWRAGPAYESYLNKP | – | 0.5 SipA per actin subunit (molar ratio)

From article PMC10708208 (Science Advances, 2023)
